The Kd is the equilibrium constant for the complex coming apart.

The text below walks through data of publication PMC4980431, “Ctf4 Is a Hub in the Eukaryotic Replisome that Links Multiple CIP-Box Proteins to the CMG Helicase” (Molecular Cell, 2016).

“Also recorded” adds a separate entry of the source. Where no end group is shown, it is not given here. fluorescein = amino-terminal fluorescein label

In data set [1] the target is Pol1 CIP-box (Saccharomyces cerevisiae) (UniProt P13382). The following applies: cited from earlier work.
In data set [2] the target is Sld5 CIP-box (Saccharomyces cerevisiae) (UniProt Q03406). The following applies: cited from earlier work.
The subject of a further data set is Ctf4-4E (471-927). Put plainly: Fluorescence anisotropy, Sld5 peptide binding to Ctf4-4E. Set-up: species or system budding yeast. The following applies: Figure S2B; 40 nM fluorescein-labeled Sld5 peptide, pH 7.2, 25°C. As for the experimental part:
(§1) The lowest concentration of peptide at which the binding studies could be performed was determined via peptide calibration curves. Fluorescence anisotropy measurements were recorded in a PHERAstar Plus multi-detection plate reader (BMG Labtech) equipped with fluorescence polarization optic module (λex = 485 nm; λem = 520 nm) at 25°C. Each data point is the mean of 200 flashes/well. The voltage gain was set by adjusting the target mP values of fluorescein-labeled peptides relative to that of fluorescein (35 mP). Serial dilutions of Ctf4CTD were made in 20 mM HEPES (pH 7.2), 140 mM KCl, and 5% (w/v) glycerol in the presence of 40 nM (Sld5 and Tof2) or 50 nM (Dna2) fluorescein-labeled peptide. For Dna2 peptide, each data point is the mean of three independent experiments and curve fitting to the experimental data was performed in pro Fit 6.2 (QuantumSoft) using a Levenberg-Marquardt fitting algorithm in combination with a Gaussian error distribution analysis.
In general terms: In fluorescence polarisation assays a small probe gives low polarisation when free and higher when bound to something large.

In the next data set the test system is Ctf4-I901E (471-927). The data set can be described thus: Fluorescence anisotropy, Sld5 peptide binding to Ctf4-I901E. Also on record: species or system budding yeast. The following applies: Figure S2B; 40 nM fluorescein-labeled Sld5 peptide, pH 7.2, 25°C. The method, then:
as §1

The test system of another data set is Dpb2. The data set can be described thus: Yeast two-hybrid with Dpb2. The class given is binding, budding yeast. As for the experimental part: (§2) Yeast growth, two-hybrid analysis, and immunoprecipitation experiments were performed as described in detail previously ([Maculins et al., 2015], [Maric et al., 2014]). A two-hybrid screen against amino acids 461–927 of Ctf4 was performed by the company Hybrigenics.

The next data set is described as follows: SEC-MALS. The data set is classed as physicochemical. The note with it: residues 471–927, 2 mg/ml, 20 mM HEPES pH 7.2, 160 mM NaCl. The method, then:
100 μl of Ctf4CTD 4E mutant protein (with mutated binding site for type I CIP-boxes) at a concentration of 2 mg/ml was loaded onto a Superdex S200 HR 10/300 gel-filtration column (GE Healthcare) in 20 mM HEPES pH 7.2, 160 mM NaCl at a flow rate of 0.5 ml/min. The column was controlled using an Äkta Purifier System (GE Healthcare) and was linked to a DAWN 8^+ 8-angle light scattering detector (Wyatt Technology) with a fused silica sample cell using a laser wavelength of 664 nm. The change in the refractive index was detected using an Optilab T-rEX refractometer with extended range (Wyatt Technology) using a wavelength of 658 nm. Data collection and analysis was carried out using the ASTRA6 software package (Wyatt Technology). Molecular weight determination across the sample peak was carried out using a Zimm-plot derived global fitting algorithm with a fit degree of 1 and a dn/dc value of 0.1850 ml/g.
On the technique in general: In gel filtration, larger molecules generally elute earlier.

Another data set relates to CMG helicase. Put plainly: Co-purification with CMG helicase from yeast cell extracts. The data set is classed as cell-based, budding yeast. The following applies: extracts of S phase yeast cells; immunoprecipitation, immunoblotting. As for the experimental part: (D) Cultures of ctf4-4E MCM4-9MYC (YFV13) and MCM4-9MYC control cells (YSS75) were synchronized in G1-phase at 30°C and then released into S phase for 20 min. The Mcm4-9MYC was isolated from cell extracts by immunoprecipitation and the associated proteins monitored by immunoblotting. (E) ctf4-4E is synthetic lethal with mrc1Δ. The cells were processed as in Figure 1A, and the photos in the lower images were taken after 20 hr growth at 30°C (the scale bars represent 50 μm). See also Figure S2. TEXT PRINTED IN THE PICTURE: (C) Ctf4-4E (471-927): 162 kDa
as §2
A general note: Immunoblotting shows a protein as a band on a membrane.

In the next data set the test system is Pol1. Put plainly: Yeast two-hybrid with Pol1. The class given is binding, budding yeast. As for the experimental part:
as §2

The test system of another data set is Dna2. The data set can be described thus: Yeast two-hybrid with Dna2. The data set is classed as binding, budding yeast. As for the experimental part:
as §2

The subject of the next data set is Tof2. Put plainly: Yeast two-hybrid with Tof2. The class given is binding, budding yeast. As for the experimental part: as §2
The target in data set [3] is T1, Ctf4 471–927 (budding yeast, UniProt Q01454 471-927).
T1 construct: also called Ctf4CTD; source: purified Ctf4CTD protein
T1 sequence (looked up): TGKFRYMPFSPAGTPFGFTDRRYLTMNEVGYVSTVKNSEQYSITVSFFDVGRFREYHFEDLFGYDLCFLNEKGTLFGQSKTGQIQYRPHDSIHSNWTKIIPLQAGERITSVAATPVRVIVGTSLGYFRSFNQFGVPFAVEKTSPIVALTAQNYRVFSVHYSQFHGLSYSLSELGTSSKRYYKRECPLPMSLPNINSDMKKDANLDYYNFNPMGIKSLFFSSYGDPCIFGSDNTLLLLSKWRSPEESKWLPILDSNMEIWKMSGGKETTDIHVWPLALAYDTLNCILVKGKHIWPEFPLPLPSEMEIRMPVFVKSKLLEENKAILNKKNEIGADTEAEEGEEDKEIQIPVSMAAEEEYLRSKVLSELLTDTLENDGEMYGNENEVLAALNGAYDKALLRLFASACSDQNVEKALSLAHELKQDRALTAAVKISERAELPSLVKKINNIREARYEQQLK
The data set can be described thus: native MS; 5-fold or 10-fold molar excess of peptide mixed with 100 μM Ctf4CTD in 500 mM ammonium acetate, at least 30 min. The note with it: both partners purified.

Data set [4] concerns the target T1, Ctf4 471–927. The data set can be described thus: fluorescence polarisation; fluorescence anisotropy; serial dilutions of Ctf4CTD with 40 nM (Sld5, Tof2) or 50 nM (Dna2) fluorescein-labeled peptide; 20 mM HEPES pH 7.2, 140 mM KCl, 5% glycerol, 25°C. The note with it: both partners purified.
For data set [5], the target named is T1, Ctf4 471–927. The data set can be described thus: pull-down; GST fusion on Glutathione Sepharose beads; 500 μl purified Ctf4CTD at 2 mg/ml, 1 hr at 4°C; 20 mM HEPES pH 7.2, 150 mM NaCl, 5% glycerol, 0.1% Igepal CA-630, 1 mM TCEP, 1% BSA; SDS-PAGE. The following applies: both partners purified.

For Ctf4 (from UniProt Q01454), the figures for the Kd in data set [1] and in [2] were 25 µM and 5 µM, respectively.
Turning to “Sld5 peptide (1-19): isolated peptide containing the Sld5 CIP-box, residues 1-19 (MDINIDDILAELDKETTAV; also: fluorescein-labeled, end not given here; UniProt Q03406 1-19, looked up, fragment)”, in the data set with Ctf4-4E (471-927), the “binding to Ctf4-4E (in words)” value was “blocked binding; also recorded: neither Ctf4-4E nor Ctf4-I901E could bind”. The “binding to Ctf4-I901E (in words)” value with Ctf4-I901E (471-927) is “blocked binding; also recorded: neither Ctf4-4E nor Ctf4-I901E could bind”.

B1: Ctf4-4E: Ctf4 L867E-A871E-A897E-I901E, mutated binding site for type I CIP-boxes (protein, UniProt Q01454 2-927, looked up, variant L867E A871E A897E I901E)
DNA polymerase alpha-binding …: VSVIDKLVFDFGGKTLVSLAPDNNTLCVANKNGLTKILKTNNPEEEPETLDSSKLVSSIKCYSNSHFLMTTMQGDALRYNIDSSQEELLARFALPLRDCCVIHSGKMAVFGGDDLELILLELDDETHKKHAIKIDEQVSQISYNSQMNILAVSMINGKVQIFSLTSTIPNKVHELNDYIVANSYDDTHRDKILSNMMDDIDKDNDNDLSETADPDENNVADPEFCAANRICTRVAWHPKGLHFALPCADDTVKIFSIKGYSLQKTLSTNLSSTKAHFIDLQFDPLRGTYIAAVDLNNKLTVWNWETSEIHYTREFKRKITNIAWKIQADSKTLDLVLGTWSGSIAIVQNLAESVVSNIPDQSVAESSTKHGLFVDSESDLENLEGNDDINKSDKLFSDITQEANAEDVFTQTHDGPSGLSEKRKYNFEDEEDFIDDDDGAGYISGKKPHNEHSYSRVHKTHSFPISLANTGKFRYMPFSPAGTPFGFTDRRYLTMNEVGYVSTVKNSEQYSITVSFFDVGRFREYHFEDLFGYDLCFLNEKGTLFGQSKTGQIQYRPHDSIHSNWTKIIPLQAGERITSVAATPVRVIVGTSLGYFRSFNQFGVPFAVEKTSPIVALTAQNYRVFSVHYSQFHGLSYSLSELGTSSKRYYKRECPLPMSLPNINSDMKKDANLDYYNFNPMGIKSLFFSSYGDPCIFGSDNTLLLLSKWRSPEESKWLPILDSNMEIWKMSGGKETTDIHVWPLALAYDTLNCILVKGKHIWPEFPLPLPSEMEIRMPVFVKSKLLEENKAILNKKNEIGADTEAEEGEEDKEIQIPVSMAAEEEYLRSKVLSELLTDTLENDGEMYGNENEVLAALNGAYDKALERLFESACSDQNVEKALSLAHELKQDRALTEAVKESERAELPSLVKKINNIREARYEQQLK
As to B1, the “interaction with Dpb2 (in words)” value in the data set with Dpb2 is given as “still able to interact”. Also, the “oligomeric state (in words)” value in the data set “SEC-MALS” (SEC-MALS) was “able to form a trimer in vitro; also recorded: trimeric”. The “molecular mass by SEC-MALS” value in “SEC-MALS” (printed in Figure 2C) is recorded as 162 kDa. In addition, in the data set with CMG helicase, the “association with CMG helicase (in words)” value is listed as “unable to interact with the CMG helicase”. Besides, in the data set with Pol1, the “interaction with Pol1 (in words)” value is given as “does not interact with the amino terminus of Pol1; also recorded: unable to interact”. The “interaction with Dna2 (in words)” value with Dna2 was “unable to interact”. Besides, the “interaction with Tof2 (in words)” value in the data set with Tof2 is recorded as “still able to interact”.

B2: Tof2 peptide 497–517 (peptide)
peptide: fluorescein-SHAKDVKIQETIRKLNRFKPT
notes: Tof2, yeast, amino acids 497-517; also called Tof2 CIP-box peptide; peptide containing the Tof2 CIP-box; source: synthetic peptide (Cambridge Peptides)
On to B2, for which the binding result in the data set with Ctf4 471–927 [3] was “binds”.

B3: Ctf4-3E: Ctf4 with M731, I740, and L756 mutated to glutamate; disrupts binding site for type II CIP-box proteins (protein)
chain: MVSVIDKLVFDFGGKTLVSLAPDNNTLCVANKNGLTKILKTNNPEEEPETLDSSKLVSSIKCYSNSHFLMTTMQGDALRYNIDSSQEELLARFALPLRDCCVIHSGKMAVFGGDDLELILLELDDETHKKHAIKIDEQVSQISYNSQMNILAVSMINGKVQIFSLTSTIPNKVHELNDYIVANSYDDTHRDKILSNMMDDIDKDNDNDLSETADPDENNVADPEFCAANRICTRVAWHPKGLHFALPCADDTVKIFSIKGYSLQKTLSTNLSSTKAHFIDLQFDPLRGTYIAAVDLNNKLTVWNWETSEIHYTREFKRKITNIAWKIQADSKTLDLVLGTWSGSIAIVQNLAESVVSNIPDQSVAESSTKHGLFVDSESDLENLEGNDDINKSDKLFSDITQEANAEDVFTQTHDGPSGLSEKRKYNFEDEEDFIDDDDGAGYISGKKPHNEHSYSRVHKTHSFPISLANTGKFRYMPFSPAGTPFGFTDRRYLTMNEVGYVSTVKNSEQYSITVSFFDVGRFREYHFEDLFGYDLCFLNEKGTLFGQSKTGQIQYRPHDSIHSNWTKIIPLQAGERITSVAATPVRVIVGTSLGYFRSFNQFGVPFAVEKTSPIVALTAQNYRVFSVHYSQFHGLSYSLSELGTSSKRYYKRECPLPMSLPNINSDMKKDANLDYYNFNPMGIKSLFFSSYGDPCIFGSDNTLLLLSKWRSPEESKWLPILDSNMEIWKESGGKETTDEHVWPLALAYDTLNCIEVKGKHIWPEFPLPLPSEMEIRMPVFVKSKLLEENKAILNKKNEIGADTEAEEGEEDKEIQIPVSMAAEEEYLRSKVLSELLTDTLENDGEMYGNENEVLAALNGAYDKALLRLFASACSDQNVEKALSLAHELKQDRALTAAVKISERAELPSLVKKINNIREARYEQQLK
Take B3: the “interaction with Dpb2 (in words)” value in the data set on Dpb2 is recorded as “unable to interact”. Also, the “association with CMG helicase (in words)” value in the data set with CMG helicase was “did not prevent association of Ctf4 with the CMG helicase”. In the data set with Pol1, the “interaction with Pol1 (in words)” value is given as “without affecting interaction”. Further, the “interaction with Dna2 (in words)” value in the data set with Dna2 is “without affecting interaction”. The “interaction with Tof2 (in words)” value with Tof2 was “abolished interaction”.

B4: Dna2 peptide 207–223 (peptide)
peptide: fluorescein-SLRNIDDILDDIEGDLT
notes: Dna2, yeast, residues 207-223; also called Dna2 CIP-box peptide; isolated peptide containing the Dna2 CIP-box; source: synthetic peptide (Cambridge Peptides)
In turn, B4 showed a Kd with Ctf4 471–927 [4] of 230 µM.

B5: GST-Dna2 CIP-box 207–223 (domain or fragment, yeast)
chain: SLRNIDDILDDIEGDLT
notes: Dna2, budding yeast, residues 207-223 (CIP-box)
In the case of B5, the binding result with Ctf4 471–927 [5] was “binds”.
